Our source for the Kd, koff and kon values is patent US20250304655A1 (CSL BEHRING, published 2025).

What all share (assay): BLI, LRP1 cluster III immobilised, analyte 2000-31.25 nM, kinetic fit 1:1
(Biolayer interferometry detects binding as a change in optical thickness at a sensor tip.)

Test [1] concerns the target T1, heme:Hx (plasma derived hemopexin complexed with heme) (UniProt P02790 24-462, limits assumed, heme bound, not covalent).
T1 construct: mature; Heme-loaded plasma-derived hemopexin, analyte in BLI; also called heme complexed plasma derived Hx; heme-hemopexin complex
T1 sequence (looked up): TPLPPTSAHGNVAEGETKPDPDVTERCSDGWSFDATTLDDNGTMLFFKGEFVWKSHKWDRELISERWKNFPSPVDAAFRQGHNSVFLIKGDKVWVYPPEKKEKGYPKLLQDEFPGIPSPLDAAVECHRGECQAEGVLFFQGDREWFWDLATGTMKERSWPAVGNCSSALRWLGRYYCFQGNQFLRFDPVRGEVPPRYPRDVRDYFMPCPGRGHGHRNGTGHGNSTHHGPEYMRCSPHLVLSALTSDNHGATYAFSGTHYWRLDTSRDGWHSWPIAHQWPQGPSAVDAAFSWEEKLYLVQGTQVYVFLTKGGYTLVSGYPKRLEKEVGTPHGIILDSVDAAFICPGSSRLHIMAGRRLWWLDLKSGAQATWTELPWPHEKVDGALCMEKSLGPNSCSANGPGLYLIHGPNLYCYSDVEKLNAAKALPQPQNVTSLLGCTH
Here is the method:
(§1) Streptavidin pre-coated biosensors (Cat No: 18-5019, FortéBio) were used. […] A reference control was included in every experiment (sensor loaded with ligand without analyte). Data was acquired on an OctetRED96 (FortéBio) at 30° C. with the following settings:
(§2) Since the full length receptor is challenging to express recombiantly, we immobilized only a fragment of CD91/LRP1 (cluster III).

Test [2] concerns the target T2, HuHemopexin-HuHaptoglobin2FS(148-406)-8His (human, UniProt P02790 24-462; P00738 162-406).
T2 construct: Cleaved by co-expressed C1r-LP; the two chains are held by the inter-chain disulphide; Uncomplexed form (no heme, no Hb)
Here is the method:
as §1, §2

A further test addresses T3, heme:Hx-Hp complex (human, UniProt P02790 24-462; P00738 162-406, heme bound, not covalent).
T3 construct: The Hx-Hp fusion protein loaded with heme
As to the method:
as §1, §2

The Kd is the equilibrium constant for the complex coming apart. Low values mean higher affinity, high ones lower affinity. As a reminder, the koff is a measure of how fast the partners let go of each other. A lower koff goes with slow dissociation. As usually defined, the kon is the rate constant with which the complex forms. A high value points to faster complex formation.

T3 sequence (P00738 other isoform, or with tags, fused parts or gaps): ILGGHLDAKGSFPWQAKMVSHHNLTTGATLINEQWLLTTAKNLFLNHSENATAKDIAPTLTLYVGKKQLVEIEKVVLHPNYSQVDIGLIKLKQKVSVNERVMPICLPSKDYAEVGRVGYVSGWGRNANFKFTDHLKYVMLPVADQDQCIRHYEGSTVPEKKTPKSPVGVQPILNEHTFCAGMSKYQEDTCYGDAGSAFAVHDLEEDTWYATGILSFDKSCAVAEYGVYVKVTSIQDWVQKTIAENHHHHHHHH
T2 sequence (P00738 other isoform, or with tags, fused parts or gaps): as above

B1: biotinylated LRP1 Cluster III (receptor)
chain: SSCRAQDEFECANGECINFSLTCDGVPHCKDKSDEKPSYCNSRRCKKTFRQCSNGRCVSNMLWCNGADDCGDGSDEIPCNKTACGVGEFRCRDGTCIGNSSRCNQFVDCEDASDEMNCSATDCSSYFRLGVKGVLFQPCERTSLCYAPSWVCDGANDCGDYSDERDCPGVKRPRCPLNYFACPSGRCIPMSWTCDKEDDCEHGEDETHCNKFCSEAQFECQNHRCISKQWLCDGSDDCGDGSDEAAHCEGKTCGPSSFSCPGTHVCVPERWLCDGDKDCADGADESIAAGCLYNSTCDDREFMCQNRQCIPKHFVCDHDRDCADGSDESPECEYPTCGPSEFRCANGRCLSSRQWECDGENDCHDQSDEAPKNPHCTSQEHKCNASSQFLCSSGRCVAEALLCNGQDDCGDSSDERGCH
modifications: biotinylated
notes: Detected with an anti-His antibody, so it appears to carry a His tag; also called LRP1/CD91 domain 3; CD91/LRP1 (cluster III)
In test [1], B1 displayed a Kd of 392 nM, a koff of 0.068 s⁻¹ and a kon of 170000 M⁻¹ s⁻¹. In addition, in test [2], the affinity, expressed as Kd, was 2700 nM; the dissociation rate constant (koff) was determined as 0.039 s⁻¹; the kon is 15000 M⁻¹ s⁻¹. In the test with heme:Hx-Hp complex, the affinity, expressed as Kd, was 480 nM; the dissociation rate constant (koff) was determined as 0.044 s⁻¹; the kon came to 91000 M⁻¹ s⁻¹.
